According to publication PMC10980420, “Abscisic acid–induced transcription factor PsMYB306 negatively regulates tree peony bud dormancy release”:

B1: pPsNCED3 mutant probe (dsDNA)
DNA 1: ACTTAGGATTACTCAGCCATAACTTCCTTCTT
DNA 2: AAGAAGGAAGTTATGGCTGAGTAATCCTAAGT
B2: pPsNCED3 WT probe (dsDNA)
DNA 1: ACTTAGGATTACTAGTTAATAACTTCCTTCTT
DNA 2: AAGAAGGAAGTTATTAACTAGTAATCCTAAGT
B3: pPsNCED3 WT cold competitor (dsDNA)
DNA 1: B2 DNA 1
DNA 2: B2 DNA 2

Assays:
[1] = biological target: T1, PsMYB306 (Paeonia suffruticosa, UniProt A0A7M3T7P1 1-327); test: EMSA; LightShift EMSA Optimization and Control Kit (Pierce); buffer, salt, pH and temperature not stated; details: protein: recombinant; tags: His (pET28a, BamHI/HindIII); label: biotin (5' of strand 1 as printed, Bio-); blunt
T1 sequence (A0A7M3T7P1 entry or part of it): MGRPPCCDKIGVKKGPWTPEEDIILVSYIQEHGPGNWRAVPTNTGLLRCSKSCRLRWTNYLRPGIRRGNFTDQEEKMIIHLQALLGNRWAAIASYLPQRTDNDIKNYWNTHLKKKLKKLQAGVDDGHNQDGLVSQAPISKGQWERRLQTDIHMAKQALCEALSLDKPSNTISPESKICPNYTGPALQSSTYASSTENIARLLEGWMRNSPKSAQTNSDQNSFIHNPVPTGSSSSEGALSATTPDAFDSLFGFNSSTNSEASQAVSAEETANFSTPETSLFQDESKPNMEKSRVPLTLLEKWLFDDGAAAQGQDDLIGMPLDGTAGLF

[2] = biological target: T1, PsMYB306; test: competition; unlabeled competitor at 50- and 100-fold against N1; signal attenuated; LightShift EMSA Optimization and Control Kit (Pierce); buffer, salt, pH and temperature not stated; details: protein: recombinant; tags: His (pET28a, BamHI/HindIII); label: none; blunt

| Binder | binding result [1] | binding result [2] |
| --- | --- | --- |
| B1 | no binding |  |
| B2 | binds |  |
| B3 |  | binds |
